# Reference: patent US20180134781A1 (Regeneron, published 2018)
# T1: monkey ANGPTL8 expressed with C-terminal mouse IgG2a Fc tag (cynomolgus monkey)
# T1 construct: also called MfANGPTL8-mFc; mfANGPTL8-mFc
# T1 chain: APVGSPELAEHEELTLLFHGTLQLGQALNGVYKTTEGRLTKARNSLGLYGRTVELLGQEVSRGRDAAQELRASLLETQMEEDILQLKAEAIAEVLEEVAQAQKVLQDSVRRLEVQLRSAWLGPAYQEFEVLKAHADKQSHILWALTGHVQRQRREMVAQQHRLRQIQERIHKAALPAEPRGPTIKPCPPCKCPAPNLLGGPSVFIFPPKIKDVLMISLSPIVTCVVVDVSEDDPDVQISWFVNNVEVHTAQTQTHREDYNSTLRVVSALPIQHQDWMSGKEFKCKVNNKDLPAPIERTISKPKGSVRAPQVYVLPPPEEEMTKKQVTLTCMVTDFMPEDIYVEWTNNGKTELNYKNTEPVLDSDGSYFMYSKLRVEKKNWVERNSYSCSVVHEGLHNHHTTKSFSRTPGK
# Biological target: T2, hLDLR-mFc (negative control protein with the same mFc tag) (human, UniProt P01130 22-788)
# T2 construct: also called Irrelevant control; not shown: mFc tag ('the same mFc tag', mouse IgG2a Fc)
# Experiment: BLI (Octet HTX), hLDLR-mFc captured on AMC sensor
# Experimental: (§1) Binding of ANGPTL8 antibodies to human and monkey ANGPTL8 proteins was investigated using Bio-layer Interferometry with an Octet HTX biosensor platform (ForteBio, A Division of Pall Life Sciences). All experiments were performed at 25° C. in 10 mM HEPES pH 7.4, 150 mM NaCl, 0.05% v/v Surfactant Tween-20, and 1 mg/ml BSA with the reaction multiwell plate agitated at 1000 rpm. Approximately 1.6 nm of human ANGPTL8 produced with a C-terminal mouse IgG2a Fc tag (hANGPTL8-mFc; SEQ ID NO: 340) or cynomolgus monkey ANGPTL8 produced with a C-terminal mouse IgG2a Fc tag (MfANGPTL8-mFc; SEQ ID NO: 341) was captured onto anti-mFc (AMC) Octet biosensors by submerging the sensors into wells containing 10 μg/mL of each protein for 4 minutes. Under the same conditions a negative control protein with the same mFc tag (hLDLR-mFc) was also coupled to the AMC sensor. All four sensors, […] and one blank, were then submerged into wells containing 100 nM of different ANGPTL8 monoclonal antibodies or an isotype control for 4 minutes.
# T2 sequence (P01130 22-788): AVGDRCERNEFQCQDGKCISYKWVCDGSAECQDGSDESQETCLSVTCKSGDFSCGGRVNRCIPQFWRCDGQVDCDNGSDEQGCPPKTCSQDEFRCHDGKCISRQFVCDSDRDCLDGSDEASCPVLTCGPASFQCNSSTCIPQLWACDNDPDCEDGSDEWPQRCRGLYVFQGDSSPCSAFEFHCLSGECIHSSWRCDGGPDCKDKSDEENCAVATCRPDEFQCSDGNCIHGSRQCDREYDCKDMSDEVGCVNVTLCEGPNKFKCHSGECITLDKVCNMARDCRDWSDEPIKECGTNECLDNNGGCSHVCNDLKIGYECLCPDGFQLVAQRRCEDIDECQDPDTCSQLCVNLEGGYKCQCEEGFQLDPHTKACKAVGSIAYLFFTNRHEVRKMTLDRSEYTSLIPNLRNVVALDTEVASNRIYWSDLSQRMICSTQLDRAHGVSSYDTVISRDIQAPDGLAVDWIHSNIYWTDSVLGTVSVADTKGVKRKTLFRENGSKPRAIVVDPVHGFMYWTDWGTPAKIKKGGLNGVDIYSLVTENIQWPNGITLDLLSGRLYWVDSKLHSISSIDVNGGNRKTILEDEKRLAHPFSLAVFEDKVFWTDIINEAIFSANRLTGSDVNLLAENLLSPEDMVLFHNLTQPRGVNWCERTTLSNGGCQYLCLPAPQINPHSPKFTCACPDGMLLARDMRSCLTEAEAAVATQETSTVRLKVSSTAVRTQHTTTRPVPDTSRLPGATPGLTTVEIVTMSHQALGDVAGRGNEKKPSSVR
row,Binder,binding result
1,"H4H15355P2 (antibody, human IgG4, V domains shown, human IgG4 Fc (H4H prefix)) VH: QVQLVESGGGVVQPGRSLRLSCAASGFTFTNYAMHWVRQAPGKGLEWVAVISYDGSHTYFADSVKGRFTMSRDNSKNTISLQMNSLRPEDTAVYFCAGGGATTWFYFYGLDVWGQGTTVTVSS VL: not shown",no binding (tested: 0.03 nm at 100 nM mAb)
2,"H4H15369P2 (antibody, human IgG4, V domains shown, human IgG4 Fc (H4H prefix)) VH: EVQLVESGGGLVQPGGSLRLSCVGTGFTFSNYAMSWVRQAPGKGLEWVSGISGRSSGTFYADSVKGRFTISRDNSQNTLYLQMNSLGAEDTAVYYCAKVSRYNWDYVPFDFWGQGTLVTVSS VL: not shown",no binding (tested: 0.03 nm at 100 nM mAb)
3,"H4H15357P2 (antibody, human IgG4, V domains shown, human IgG4 Fc (H4H prefix)) VH: EVQLVESGGGLVKPGGSLRLSCTASGFTFGNAWMSWVRQAPGKGLEWVGLIKGKTDGGTTNYAAPVKGRFTISRDDSKNTLYLHLNSLRTEDTALYYCTTDQVELRQYYYYGLDVWGQGTTVTVSS VL: not shown",no binding (tested: 0.03 nm at 100 nM mAb)
4,"H4H15346P (antibody, human IgG4, V domains shown, human IgG4 Fc (H4H prefix)) VH: EVQLVESGGGLVQPGGSLRLSCAASGFTFSNYAMSWVRQAPGKGLEWVSTISDTGGSTYYADSVKGRFALSRDNSRNTLYLQMNSLRAEDTAVYYCAKEGPPDYWGQGTLVTVSS VL: EIVLTQSPATLSLSPGERATLSCRTSQSVSIYLAWYQQKPGQAPRLLIYDASKRATGIPARFSGRGSGTDFTLTISSLEPEDFAVYYCQQRSNWPLTFGQGTRLEIK",no binding (tested: 0.03 nm at 100 nM mAb)
5,"H4H15335P (antibody, human IgG4, V domains shown, human IgG4 Fc (H4H prefix)) VH: QVQLVESGGGVVQPGRSLRLSCAASGFTFNNYGIHWVRQAPGKGLEWVAVISYDESNKYYADSVKGRFTISRDNSKNTLYLQMNSLRAEDTAVYYCAKDIRIAARRHYYYYGMDVWGQGTTVTVSS VL: DIQMTQSPSSVSASVGDRVTITCRASQGISRWLAWYQQKPGKAPKLLIYAASSLESGVPARFSGSGSGTDFTLTISSLQPEDFATYYCQQANSFPITFGPGTKVDIK",no binding (tested: 0.03 nm at 100 nM mAb)
6,"H4H15354P2 (antibody, human IgG4, V domains shown, human IgG4 Fc (H4H prefix)) VH: QVQLVESGGGVVQPGRSLRLSCTASGFTFNNYGIHWVRQAPGKGLEWVAVISYDGSNKFYAESVRGRFTISRDNSRNTLFLQMISLRGEDSAVYYCAKDRPYYDILTAHYPSDYYFYAMDVWGHGTTVTVSS VL: not shown",no binding (tested: 0.03 nm at 100 nM mAb)
7,"H4H15334P (antibody, human IgG4, V domains shown, human IgG4 Fc (H4H prefix)) VH: QVQLQESGPGLVKPSQTLSLTCTVSGGSINSGGYYWNWIRQHPGKGLEWIGYIYYSGSTYFNPSLKSRVTISIDTSKNQFSLKLSSVTAADTAVYYCAREGIYAFDYWGQGTLVTVSS VL: DIQMTQSPSSLSASVGDRVTITCRASQGIRNDLGWYQQKPGKAPKRLIYSASSLQSGVPSRFGGSGSGTEFTLTISSLQPEDFATYYCLQHNSYPWTFGQGTKVEIK",no binding (tested: 0.03 nm at 100 nM mAb)
8,"H4H15362P2 (antibody, human IgG4, V domains shown, human IgG4 Fc (H4H prefix)) VH: QVQLVESGGGVVQPGRSLRLSCAASGFTFSSYGMHWVRQAPGKGLEWVAVIWYDGSNKYYADSVKGRFTISRDNSKNTLYLQMNSLRAEDTAVYYCARDWVRFLEWFPHFDYWGQGTLVTVSS VL: not shown",no binding (tested: 0.03 nm at 100 nM mAb)
9,"H4H15321P (antibody, human IgG4, V domains shown, human IgG4 Fc (H4H prefix)) VH: EVQLVESGGGLVQPGGSLRLSCAASGFTFSSYAMSWVRQAPGKGLEWVSAITGSGGRTYYADSVKGRFTISRDNAKNTLYLQMNSLRAEDTAVYYCAKNFPFDYWGQGTLVTVSS VL: not shown",no binding (tested: 0.03 nm at 100 nM mAb)
10,"H4H15330P (antibody, human IgG4, V domains shown, human IgG4 Fc (H4H prefix)) VH: QVQLVESGGGLVKPGGSLRLSCAASGFTFSDYYMSWIRQAPGKGLEWISHISGSGRTTHYADSMKGRFTISRDNAKNSLYLQMNSLRAEDTAVYYCVREGGFNWNYEGTFDIWGQGTMVTVSS VL: DIVMTQTPLSSPVTLGQPASISCRSSQSLLHSDQNTYLSWLHQRPGQPPRLLIYKISNRFSGVPDRFSGSGAGTDFTLKISRVEAEDVGIYYCMQGTQFPLTFGGGTKVEIK",no binding (tested: 0.03 nm at 100 nM mAb)
11,"H4H15367P2 (antibody, human IgG4, V domains shown, human IgG4 Fc (H4H prefix)) VH: QVQLVESGGGVVQPGRSVRLSCGASGFTFKYYGMHWVRQAPGKGLEWVAVIWYDGRNKFYADSVKGRFTISRDNSKNTVNLEMNNLRAEDTAIYYCARDGGTADGDYFDYWGQGTLVTVSS VL: not shown",no binding (tested: 0.03 nm at 100 nM mAb)
12,"H4H15363P2 (antibody, human IgG4, V domains shown, human IgG4 Fc (H4H prefix)) VH: EVQLVESGGGLVQPGGSLRLSCAASGFTFSNYAMSWVRQVPGKGLEWVSTISGSGGSTYYADSVKGRFTISRDNSKNSLYLQMNSLRAEDTAVYYCAKLVRGVIGWFDPWGQGTLVTVSS VL: not shown",no binding (tested: 0.03 nm at 100 nM mAb)
13,"H4H15347P (antibody, human IgG4, V domains shown, human IgG4 Fc (H4H prefix)) VH: EVQLVESGGGLVQPGGSLRLSCAASGFTFRNYAMNWARQAPGKGLEWVSGITGSGGATYYADSVKGRFTISRENSKNTLFLQMDTLRAEDTAVYYCAKDRRYFPTSGGPQWGQGTLVTVSS VL: DIVMTQSPLSLPVTPGEPASISCRSSRSLLHSSGYNYLDWYLQKPGQSPQLLLYLGSNRASGVPDRFSGSGSGTYFTLKISRVDAEDVGVYYCMQALQTPWTFGQGTKVEIK",no binding (tested: 0.03 nm at 100 nM mAb)
14,"H4H15345P (antibody, human IgG4, V domains shown, human IgG4 Fc (H4H prefix)) VH: EVQLVESGGGLVQPGGSLRLSCAASGFTFSTYAMSWVRQAPGKGLEWVSVISGSFISTYYADSVKGRFTISRDNSKNTLYLQMTSLRAEDTAVYYCAKNSPFDYWGQGTLVTVSS VL: not shown",no binding (tested: 0.03 nm at 100 nM mAb)
15,"H4H15361P2 (antibody, human IgG4, V domains shown, human IgG4 Fc (H4H prefix)) VH: EVQLVESGGGLVQPGRSLRLSCTASGFSFGDNAMGWVRQAPGKGLEWVSFIRRKASGGTTEYAASVKGRFTISRDDSKSIAYLQMNSLKTEDTGVYYCTRGGAVYGYWGQGTLVTVSS VL: not shown",no binding (tested: 0.03 nm at 100 nM mAb)
16,"H4H15318P (antibody, human IgG4, V domains shown, human IgG4 Fc (H4H prefix)) VH: QVQLVESGGGVVQPGRSLRLSCTASGFTFGNFGIHWVRQAPGKGLEWVAVISYDGTDKFYADPVKGRFIISRDNSMNILYLQMNSLRAEDTAVYYCAKDGEMELRGYYYYYGMDVWGQGTTVTVSS VL: DIQMTQSPSSVSASVGDRVTITCRASQGINTWLAWYQQKPGTAPKLLIFAASSLESGVPSRFSGSGFGTDFTLTISSLQSEDLATYFCQQVHSPPYTFGQGTKLEIK",no binding (tested: 0.03 nm at 100 nM mAb)
17,"H4H15323P (antibody, human IgG4, V domains shown, human IgG4 Fc (H4H prefix)) VH: EVQLVESGGGLVQPGGSLRLSCAASGFTFSSYAMTWVRQAPGKGLEWVSAISGSGGSTYYTDSVKGRFTLSRDNSKNTLYLQMNSLRAEDTAVYYCAKSDYSNTIYWYYGMDVWGQGTTVTVSS VL: not shown",no binding (tested: 0.03 nm at 100 nM mAb)
18,"H4H15350P2 (antibody, human IgG4, V domains shown, human IgG4 Fc (H4H prefix)) VH: EVQLVESGGGLVQPGGSLRLSCAASGFTFSSFRMTWVRQAPGKGLEWVANIKQDGSEKYYVDSVKGRFTISRDNAKNSLYLQMNSLRAEDTAVYYCARGGGIAAYWGQGTLVTVSS VL: not shown",no binding (tested: 0.03 nm at 100 nM mAb)

# Biological target: T1, monkey ANGPTL8 expressed with …
# Experiment: BLI (Octet HTX), MfANGPTL8-mFc captured on AMC sensor
# Experimental: as §1
row,Binder,binding result
1,"H4H15346P (antibody, human IgG4, V domains shown, human IgG4 Fc (H4H prefix)) VH: EVQLVESGGGLVQPGGSLRLSCAASGFTFSNYAMSWVRQAPGKGLEWVSTISDTGGSTYYADSVKGRFALSRDNSRNTLYLQMNSLRAEDTAVYYCAKEGPPDYWGQGTLVTVSS VL: EIVLTQSPATLSLSPGERATLSCRTSQSVSIYLAWYQQKPGQAPRLLIYDASKRATGIPARFSGRGSGTDFTLTISSLEPEDFAVYYCQQRSNWPLTFGQGTRLEIK",no binding (tested: background 0.03 nm at 100 nM mAb)
2,"H4H15354P2 (antibody, human IgG4, V domains shown, human IgG4 Fc (H4H prefix)) VH: QVQLVESGGGVVQPGRSLRLSCTASGFTFNNYGIHWVRQAPGKGLEWVAVISYDGSNKFYAESVRGRFTISRDNSRNTLFLQMISLRGEDSAVYYCAKDRPYYDILTAHYPSDYYFYAMDVWGHGTTVTVSS VL: not shown",no binding (tested: background 0.03 nm at 100 nM mAb)
3,"H4H15334P (antibody, human IgG4, V domains shown, human IgG4 Fc (H4H prefix)) VH: QVQLQESGPGLVKPSQTLSLTCTVSGGSINSGGYYWNWIRQHPGKGLEWIGYIYYSGSTYFNPSLKSRVTISIDTSKNQFSLKLSSVTAADTAVYYCAREGIYAFDYWGQGTLVTVSS VL: DIQMTQSPSSLSASVGDRVTITCRASQGIRNDLGWYQQKPGKAPKRLIYSASSLQSGVPSRFGGSGSGTEFTLTISSLQPEDFATYYCLQHNSYPWTFGQGTKVEIK",no binding (tested: background 0.03 nm at 100 nM mAb)
